As a reminder, the EC50 is the midpoint of the concentration-response curve. What is called Kd is the constant that tells how readily two partners part at equilibrium. Lower therefore signals higher affinity. For orientation: koff means the first-order rate constant of dissociation. A low value points to a long-lived complex. One may read the kon as the second-order rate constant of association. A high value points to fast association.

We go through six molecules from patent US20240368242A1 (SHATTUCK LABS, published 2024).

The labels stand for the following.
B1: murine CD172a(SIRPα)-Fc-CD40L chimeric protein (Fc fusion)
chain 1: KELKVTQPEKSVSVAAGDSTVLNCTLTSLLPVGPIRWYRGVGPSRLLIYSFAGEYVPRIRNVSDTTKRNNMDFSIRISNVTPADAGIYYCVKFQKGSSEPDTEIQSGGGTEVYVLAKPSPPEVSGPADRGIPDQKVNFTCKSHGFSPRNITLKWFKDGQELHPLETTVNPSGKNVSYNISSTVRVVLNSMDVNSKVICEVAHITLDRSPLRGIANLSNFIRVSPTVKVTQQSPTSMNQVNLTCRAERFYPEDLQLIWLENGNVSRNDTPKNLTKNTDGTYNYTSLFLVNSSAHREDVVFTCQVKHDQQPAITRNHTVLGFAHSSDQGSMQTFPDNNATHNWN
chain 2: HRRLDKVEEEVNLHEDFVFIKKLKRCNKGEGSLSLLNCEEMRRQFEDLVKDITLNKEEKKENSFEMQRGDEDPQIAAHVVSEANSNAASVLQWAKKGYYTMKSNLVMLENGKQLTVKREGLYYVYTQVTFCSNREPSSQRPFIVGLWLKPSSGSERILLKAANTHSSSQLCEQQSVHLGGVFELQAGASVFVNVTEASQVIHRVGFSSFGLLKL
B2: murine PD-1-Fc-OX40L chimeric protein (Fc fusion)
chain 1: LEVPNGPWRSLTFYPAWLTVSEGANATFTCSLSNWSEDLMLNWNRLSPSNQTEKQAAFCNGLSQPVQDARFQIIQLPNRHDFHMNILDTRRNDSGIYLCGAISLHPKAKIEESPGAELVVTERILETSTRYPSPSPKPEGRFQGM
chain 2: SSSPAKDPPIQRLRGAVTRCEDGQLFISSYKNEYQTMEVQNNSVVIKCDGLYIIYLKGSFFQEVKIDLHFREDHNPISIPMLNDGRRIVFTVVASLAFKDKVYLTVNAPDTLCEHLQINDGELIVVQLTPGYCAPEGSYHSTVNQVPL
B3: human PD-1-Fc-OX40L chimeric protein treated with the deglycosylase PNGase F (Fc fusion)
chain: LDSPDRPWNPPTFSPALLVVTEGDNATFTCSFSNTSESFVLNWYRMSPSNQTDKLAAFPEDRSQPGQDCRFRVTQLPNGRDFHMSVVRARRNDSGTYLCGAISLAPKAQIKESLRAELRVTERRAEVPTAHPSPSPRPAGQFQSKYGPPCPSCPAPEFLGGPSVFLFPPKPKDTLMISRTPEVTCVVVDVSQEDPEVQFNWYVDGVEVHNAKTKPREEQFNSTYRVVSVLTVLHQDWLSGKEYKCKVSSKGLPSSIEKTISNATGQPREPQVYTLPPSQEEMTKNQVSLTCLVKGFYPSDIAVEWESNGQPENNYKTTPPVLDSDGSFFLYSRLTVDKSSWQEGNVFSCSVMHEALHNHYTQKSLSLSLGKIEGRMDQVSHRYPRIQSIKVQFTEYKKEKGFILTSQKEDEIMKVQNNSVIINCDGFYLISLKGYFSQEVNISLHYQKDEEPLFQLKKVRSVNSLMVASLTYKDKVYLNVTTDNTSLDDFHVNGGELILIHQNPGEFCVL
modifications: N-glycans removed with PNGase F
notes: also called deglycosylated hPD-1-Fc-OX40L
B4: human PD-1-Fc-OX40L chimeric protein (Fc fusion)
chain: B3 chain
notes: Glycosylated; also called hPD-1-Fc-OX40L
B5: recombinant murine CD40 protein (receptor, UniProt P27512 24-193, looked up)
chain: VTCSDKQYLHDGQCCDLCQPGSRLTSHCTALEKTQCHPCDSGEFSAQWNREIRCHQHRHCEPNQGLRVKKEGTAESDTVCTCKEGQHCTSKDCEACAQHTPCIPGFGVMEMATETTDTVCHPCPVGFFSNQSSLFEKCYPWTSCEDKNLEVLQKGTSQTNVICGLKSRMR
notes: also called mCD40
B6: recombinant human OX40L-Fc (Fc fusion, UniProt P23510 51-183, looked up)
chain: QVSHRYPRIQSIKVQFTEYKKEKGFILTSQKEDEIMKVQNNSVIINCDGFYLISLKGYFSQEVNISLHYQKDEEPLFQLKKVRSVNSLMVASLTYKDKVYLNVTTDNTSLDDFHVNGGELILIHQNPGEFCVL
notes: Positive control in SPR; not shown: Fc not described

The target in assay [1] is T1, murine CD40 expressed on CHOK1 cells (CHOK1/mCD40) (murine, UniProt P27512 20-289).
T1 construct: whole, on cells
The experiment in a line: flow cytometry on CHOK1/mCD40 cells.

The target in assay [2] is T2, FcRn-His (Example 11).
T2 construct: A beta-2-microglobulin chain is not mentioned
Put plainly: SPR (BioRad ProteOn XPR 360), His-tagged target chip-bound.

The target in assay [3] is T3, OX40 receptor used in the functional ELISA of Example 12 (human, UniProt P43489 29-216).
T3 construct: also called hOX40
T3 sequence (looked up): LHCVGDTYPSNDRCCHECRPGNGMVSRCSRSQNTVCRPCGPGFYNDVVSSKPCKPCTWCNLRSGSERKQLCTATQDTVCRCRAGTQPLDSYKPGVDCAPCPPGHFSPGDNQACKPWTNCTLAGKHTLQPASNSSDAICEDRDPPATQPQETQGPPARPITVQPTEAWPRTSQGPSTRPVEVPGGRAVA
Put plainly: functional ELISA on human OX40; x axis is dilution (1 to 16), concentration not given. In general terms: In an ELISA, binding on a coated surface is turned into a signal by an enzyme label.

The target of assay [4] is T4, human OX40 expressed on Jurkat cells (Jurkat/hOX40) (human, UniProt P43489 29-277).
T4 construct: whole, on cells
T4 sequence (looked up): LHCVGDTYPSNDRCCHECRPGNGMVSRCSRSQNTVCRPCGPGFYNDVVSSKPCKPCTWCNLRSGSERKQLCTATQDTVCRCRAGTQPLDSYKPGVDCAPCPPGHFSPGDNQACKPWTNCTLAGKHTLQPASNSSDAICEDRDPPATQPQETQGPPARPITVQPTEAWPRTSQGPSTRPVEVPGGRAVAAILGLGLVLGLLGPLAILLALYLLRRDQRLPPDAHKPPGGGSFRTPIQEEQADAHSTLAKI
The experiment in a line: flow cytometry on Jurkat-hOX40 cells; Jurkat cells without hOX40 as control.

The target of assay [5] is plate-bound recombinant human PD-L1 protein (human, UniProt Q9NZQ7 19-238, limits assumed). Put plainly: functional ELISA on human PD-L1; x axis is dilution (1 to 16), concentration not given.
Assay [6] deals with Galectin-1 (human, UniProt P09382 2-135, limits assumed). Put plainly: microarray containing about 6,000 human membrane proteins.
The target of assay [7] is T5, TNFRSF4.
T5 construct: also called TNF Receptor Superfamily Member 4; canonical isoform
T5 chain: T4 sequence (looked up)
The description is as above.

Assay [8] has as its target B1. Put plainly: SPR, binding to mCD40. (In general: Surface plasmon resonance follows binding to a sensor surface in real time, without labels.)
In assay [9] the target is T6, recombinant human OX40-His protein (human, UniProt P43489 29-216).
T6 construct: also called polyhistidine-tagged recombinant human OX40; hOX40; not shown: polyhistidine tag
T6 sequence (looked up): T3 sequence (looked up)
Put plainly: SPR, His-tagged target on ProteOn HTG tris-NTA chip, positive control. An excerpt:
Specifically, polyhistidine-tagged versions of recombinant human PD-L1, PD-L2, or OX40 was bound to ProteOn HTG tris-NTA chips (BIORAD).

For assay [10], the target named is T3, OX40 receptor used in the functional …. The experiment in a line: ELISA, plate-bound OX40, detection with αOX40L and HRP detection antibody; fold dilution series.

T2 sequence (Q61559 22-297, chain 1 of 2): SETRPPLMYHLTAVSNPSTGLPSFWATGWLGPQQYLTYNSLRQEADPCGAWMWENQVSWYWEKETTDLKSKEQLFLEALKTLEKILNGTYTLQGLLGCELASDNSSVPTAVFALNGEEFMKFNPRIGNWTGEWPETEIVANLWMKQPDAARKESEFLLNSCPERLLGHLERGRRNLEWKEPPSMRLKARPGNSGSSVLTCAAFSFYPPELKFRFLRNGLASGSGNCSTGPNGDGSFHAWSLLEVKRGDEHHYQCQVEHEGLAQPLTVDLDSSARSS
T2 sequence (P01887 21-119, chain 2 of 2, further chain): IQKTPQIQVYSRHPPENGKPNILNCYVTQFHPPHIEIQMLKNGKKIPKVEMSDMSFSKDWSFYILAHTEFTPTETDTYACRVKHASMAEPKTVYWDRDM
Galectin-1, sequence (P09382 2-135 limits assumed): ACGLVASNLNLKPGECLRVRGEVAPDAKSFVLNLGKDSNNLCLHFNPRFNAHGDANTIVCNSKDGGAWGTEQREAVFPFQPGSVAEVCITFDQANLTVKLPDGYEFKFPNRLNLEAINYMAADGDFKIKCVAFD
T1 sequence (P27512 20-289): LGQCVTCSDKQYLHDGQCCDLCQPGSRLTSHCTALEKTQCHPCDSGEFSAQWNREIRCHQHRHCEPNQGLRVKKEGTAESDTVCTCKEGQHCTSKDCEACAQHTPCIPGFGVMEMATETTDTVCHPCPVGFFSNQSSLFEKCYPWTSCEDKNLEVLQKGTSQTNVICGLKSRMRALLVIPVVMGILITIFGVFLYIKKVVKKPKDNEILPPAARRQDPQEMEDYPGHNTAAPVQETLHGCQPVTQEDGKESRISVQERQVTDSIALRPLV
plate-bound recombinant human PD-L1 protein, sequence (Q9NZQ7 19-238 limits assumed): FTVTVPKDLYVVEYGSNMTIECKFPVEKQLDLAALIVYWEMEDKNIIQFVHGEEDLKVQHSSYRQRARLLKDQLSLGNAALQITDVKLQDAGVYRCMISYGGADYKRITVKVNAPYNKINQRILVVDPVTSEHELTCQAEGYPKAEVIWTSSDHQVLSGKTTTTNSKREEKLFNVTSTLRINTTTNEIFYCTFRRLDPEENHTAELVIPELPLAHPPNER

For the molecule B1, in assay [1], the EC50 is 20.2 nM.

For B2, in assay [2], the Kd stood at 55.6 nM, the off-rate constant (koff) is 0.00262 s⁻¹ and the association rate constant (kon) turned out to be 47200 M⁻¹ s⁻¹.

For B3, the binding result in assay [3], in assay [4] and in assay [5] was “binds” each time.

B4: the binding result in assay [6] and in assay [7] was “binds” throughout.

Consider B5, for which, in [8], the off-rate constant (koff) was 5.51e-05 s⁻¹ and the on-rate (kon) was determined as 72800 M⁻¹ s⁻¹.

In the case of B6, the binding result in [9] and in [10] was “binds” in each case.
